Each block holds one binder with its values, some of them ahead of it.
Columns and labels:
Human PCNA, recombinant = target: T1, Human PCNA, recombinant (human, UniProt P12004 1-261); assay: pull-down; GST fusion protein incubated with the test protein in 50 mM Tris-HCl pH 7.8, 1 mM EDTA, 150 mM NaCl, 0.1% NP-40, 0.2 mM PMSF, 1 h at 4°C; captured on glutathione beads, washed 8 times; western blot of the test protein; conditions: both partners purified
T1 construct: PCNA, human; source: E. coli, purified
T1 sequence (P12004 whole entry, the tested form may be a part): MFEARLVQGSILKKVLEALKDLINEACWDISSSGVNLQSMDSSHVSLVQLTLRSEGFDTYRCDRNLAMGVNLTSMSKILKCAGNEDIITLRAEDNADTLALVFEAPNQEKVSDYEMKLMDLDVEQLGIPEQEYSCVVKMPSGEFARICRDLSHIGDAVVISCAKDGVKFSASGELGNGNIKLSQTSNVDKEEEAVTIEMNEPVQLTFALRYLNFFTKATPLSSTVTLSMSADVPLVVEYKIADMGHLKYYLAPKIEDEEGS

[1] = target: DNA polymerase delta (Pol δ4) (Homo sapiens, UniProt P28340); assay: polymerase activity stimulation assay
DNA polymerase delta (Pol δ4), sequence (P28340 whole entry, stated change not applied, chain 1 of 4, the tested form may be a part): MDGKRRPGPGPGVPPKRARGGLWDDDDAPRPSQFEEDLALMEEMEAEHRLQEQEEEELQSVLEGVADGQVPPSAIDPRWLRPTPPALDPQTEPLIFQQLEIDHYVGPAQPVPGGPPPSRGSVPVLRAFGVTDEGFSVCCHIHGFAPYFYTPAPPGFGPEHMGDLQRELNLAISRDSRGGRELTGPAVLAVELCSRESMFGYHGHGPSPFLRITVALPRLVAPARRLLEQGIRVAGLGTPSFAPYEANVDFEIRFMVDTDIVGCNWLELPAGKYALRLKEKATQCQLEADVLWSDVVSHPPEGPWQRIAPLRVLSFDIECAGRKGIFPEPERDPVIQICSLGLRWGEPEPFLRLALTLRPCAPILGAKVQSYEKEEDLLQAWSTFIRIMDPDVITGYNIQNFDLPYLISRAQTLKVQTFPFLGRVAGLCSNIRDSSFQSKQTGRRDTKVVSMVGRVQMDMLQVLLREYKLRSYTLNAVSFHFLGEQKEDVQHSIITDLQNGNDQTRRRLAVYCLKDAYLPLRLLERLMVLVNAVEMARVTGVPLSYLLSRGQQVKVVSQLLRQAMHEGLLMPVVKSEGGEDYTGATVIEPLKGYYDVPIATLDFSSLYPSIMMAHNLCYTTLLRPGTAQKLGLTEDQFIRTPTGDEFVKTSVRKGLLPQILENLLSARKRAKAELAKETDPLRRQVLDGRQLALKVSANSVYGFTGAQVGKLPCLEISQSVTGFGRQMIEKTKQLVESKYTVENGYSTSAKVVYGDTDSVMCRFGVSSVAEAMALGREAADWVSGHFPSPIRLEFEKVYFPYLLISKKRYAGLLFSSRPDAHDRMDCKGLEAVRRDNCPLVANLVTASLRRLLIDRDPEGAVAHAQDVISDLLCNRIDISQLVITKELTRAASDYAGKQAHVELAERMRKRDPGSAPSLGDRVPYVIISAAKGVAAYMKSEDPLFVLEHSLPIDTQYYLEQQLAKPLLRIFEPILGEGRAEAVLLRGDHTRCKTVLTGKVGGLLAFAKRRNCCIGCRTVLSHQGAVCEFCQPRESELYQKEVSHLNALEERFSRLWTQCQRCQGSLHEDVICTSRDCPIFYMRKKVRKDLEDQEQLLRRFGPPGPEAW
DNA polymerase delta (Pol δ4), sequence (P49005 whole entry, stated change not applied, chain 2 of 4, further chain, the tested form may be a part): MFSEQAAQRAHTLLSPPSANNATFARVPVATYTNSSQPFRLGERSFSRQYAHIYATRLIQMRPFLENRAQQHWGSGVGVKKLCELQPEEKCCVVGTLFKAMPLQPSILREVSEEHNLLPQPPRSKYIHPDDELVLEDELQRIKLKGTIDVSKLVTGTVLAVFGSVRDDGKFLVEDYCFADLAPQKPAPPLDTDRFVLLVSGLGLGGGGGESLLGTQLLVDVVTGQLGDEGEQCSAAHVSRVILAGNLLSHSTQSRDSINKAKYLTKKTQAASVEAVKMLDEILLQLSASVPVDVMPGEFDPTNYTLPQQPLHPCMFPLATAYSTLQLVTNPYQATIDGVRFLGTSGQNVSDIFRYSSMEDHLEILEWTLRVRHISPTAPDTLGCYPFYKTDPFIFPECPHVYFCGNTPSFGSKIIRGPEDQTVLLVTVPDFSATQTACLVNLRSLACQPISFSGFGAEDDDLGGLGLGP
DNA polymerase delta (Pol δ4), sequence (Q15054 2-466, stated change not applied, chain 3 of 4, further chain): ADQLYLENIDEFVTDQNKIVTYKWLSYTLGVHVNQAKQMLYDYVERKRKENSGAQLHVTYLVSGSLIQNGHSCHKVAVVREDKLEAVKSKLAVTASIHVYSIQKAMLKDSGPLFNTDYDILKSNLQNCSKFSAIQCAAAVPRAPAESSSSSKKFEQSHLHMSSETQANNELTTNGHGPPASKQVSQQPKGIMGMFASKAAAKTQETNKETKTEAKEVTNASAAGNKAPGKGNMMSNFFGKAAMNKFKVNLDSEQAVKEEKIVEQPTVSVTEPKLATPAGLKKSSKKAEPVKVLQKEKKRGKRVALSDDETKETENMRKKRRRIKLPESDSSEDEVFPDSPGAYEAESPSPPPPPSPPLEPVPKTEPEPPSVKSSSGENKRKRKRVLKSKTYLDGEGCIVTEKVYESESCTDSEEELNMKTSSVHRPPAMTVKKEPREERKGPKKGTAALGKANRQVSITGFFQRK
DNA polymerase delta (Pol δ4), sequence (Q9HCU8 whole entry, stated change not applied, chain 4 of 4, further chain, the tested form may be a part): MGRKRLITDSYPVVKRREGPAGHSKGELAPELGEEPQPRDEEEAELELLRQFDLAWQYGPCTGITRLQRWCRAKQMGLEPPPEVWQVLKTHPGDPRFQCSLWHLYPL

His-tagged PDIP46 = target: T2, His-tagged PDIP46 (human, UniProt Q9BY77 1-421); assay: pull-down; GST fusion protein incubated with the test protein in 50 mM Tris-HCl pH 7.8, 1 mM EDTA, 150 mM NaCl, 0.1% NP-40, 0.2 mM PMSF, 1 h at 4°C; captured on glutathione beads, washed 8 times; western blot of the test protein; conditions: both partners purified
T2 construct: PDIP46 (SKAR, POLDIP3), human; Expressed in the pTacTac vector with eight histidine residues added at its N-terminus; also called his-PDIP46; source: E. coli BL21DE3 (pLysS), purified (Ni-NTA agarose); not shown: His8, N-terminal, kept
T2 sequence (looked up): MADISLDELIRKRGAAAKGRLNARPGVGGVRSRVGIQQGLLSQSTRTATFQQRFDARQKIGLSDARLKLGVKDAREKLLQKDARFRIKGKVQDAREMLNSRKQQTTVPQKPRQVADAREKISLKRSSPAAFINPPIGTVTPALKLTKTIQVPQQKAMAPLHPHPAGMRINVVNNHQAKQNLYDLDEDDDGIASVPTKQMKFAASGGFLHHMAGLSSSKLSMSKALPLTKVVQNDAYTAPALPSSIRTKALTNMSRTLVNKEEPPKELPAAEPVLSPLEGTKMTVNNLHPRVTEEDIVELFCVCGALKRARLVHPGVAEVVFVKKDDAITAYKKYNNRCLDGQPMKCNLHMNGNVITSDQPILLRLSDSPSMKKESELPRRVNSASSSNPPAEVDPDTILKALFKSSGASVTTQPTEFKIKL

[2] = target: T3, His-tagged p50 subunit of Pol δ (human, UniProt P49005 1-469); assay: as above; conditions: both partners purified
T3 construct: p50 subunit of human DNA polymerase δ; Expressed in the PET33b vector; also called his-p50; source: E. coli BL21DE3 (pLysS), purified (Ni-NTA agarose)
T3 sequence (P49005 whole entry, stated change not applied): as the sequence (P49005 whole entry, stated change not applied, chain 2 of 4, further chain, the tested form may be a part) above

[3] = target: T4, Recombinant human DNA polymerase δ holoenzyme (Pol δ4), heterotetramer of p125, p50, p68 and p12 (human, UniProt P28340 1-1107; P49005 1-469; Q15054 1-466; Q9HCU8 1-107); assay: as above; conditions: both partners purified
T4 construct: p125, catalytic subunit of human Pol δ; p50 subunit of human Pol δ; p68 subunit of human Pol δ; p12 subunit of human Pol δ; also called Pol δ heterotetramer; source: insect cells, purified to near homogeneity; copies: + + +
T4 sequence (P28340 whole entry, stated change not applied, chain 1 of 4): as the sequence (P28340 whole entry, stated change not applied, chain 1 of 4, the tested form may be a part) above
T4 sequence (P49005 whole entry, stated change not applied, chain 2 of 4): as the sequence (P49005 whole entry, stated change not applied, chain 2 of 4, further chain, the tested form may be a part) above
T4 sequence (Q15054 whole entry, stated change not applied, chain 3 of 4): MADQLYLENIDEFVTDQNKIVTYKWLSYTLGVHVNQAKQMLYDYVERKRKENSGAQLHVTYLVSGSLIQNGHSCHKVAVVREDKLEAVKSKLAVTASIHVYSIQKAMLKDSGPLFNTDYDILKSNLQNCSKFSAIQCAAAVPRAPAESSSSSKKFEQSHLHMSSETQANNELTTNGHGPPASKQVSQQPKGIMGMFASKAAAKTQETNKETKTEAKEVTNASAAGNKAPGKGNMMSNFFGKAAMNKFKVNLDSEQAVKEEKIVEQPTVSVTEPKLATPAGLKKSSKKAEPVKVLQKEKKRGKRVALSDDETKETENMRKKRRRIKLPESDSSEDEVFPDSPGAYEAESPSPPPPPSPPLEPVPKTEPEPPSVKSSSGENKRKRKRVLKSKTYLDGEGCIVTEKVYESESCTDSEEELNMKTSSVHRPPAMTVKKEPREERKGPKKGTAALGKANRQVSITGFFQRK
T4 sequence (Q9HCU8 whole entry, stated change not applied, chain 4 of 4): as the sequence (Q9HCU8 whole entry, stated change not applied, chain 4 of 4, further chain, the tested form may be a part) above

- binding result (Human PCNA, recombinant): binds
B1: GST-PDIP46 N-terminal fragment (residues 1-141) (domain or fragment, human, UniProt Q9BY77 1-141, looked up)
chain: MADISLDELIRKRGAAAKGRLNARPGVGGVRSRVGIQQGLLSQSTRTATFQQRFDARQKIGLSDARLKLGVKDAREKLLQKDARFRIKGKVQDAREMLNSRKQQTTVPQKPRQVADAREKISLKRSSPAAFINPPIGTVTP
notes: Subcloned in pGEX-5X-3; source: E. coli BL21DE3 (pLysS), purified (glutathione beads)

- Kd [1]: 34 nM
B2: PDIP46 (protein)
chain: ADISLDELIRKRGAAAKGRLNARPGVGGVRSRVGIQQGLLSQSTRTATFQQRFDARQKIGLSDARLKLGVKDAREKLLQKDARFRIKGKVQDAREMLNSRKQQTTVPQKPRQVADAREKISLKRSSPAAFINPPIGTVTPALKLTKTIQVPQQKAMAPLHPHPAGMRINVVNNHQAKQNLYDLDEDDDGIASVPTKQMKFAASGGFLHHMAGLSSSKLSMSKALPLTKVVQNDAYTAPALPSSIRTKALTNMSRTLVNKEEPPKELPAAEPVLSPLEGTKMTVNNLHPRVTEEDIVELFCVCGALKRARLVHPGVAEVVFVKKDDAITAYKKYNNRCLDGQPMKCNLHMNGNVITSDQPILLRLSDSPSMKKESELPRRVNSASSSNPPAEVDPDTILKALFKSSGASVTTQPTEFKIKL

- binding result (His-tagged PDIP46): binds
B3: GST-p50 deletion construct containing residues 252-400 of p50 (domain or fragment, human, UniProt P49005 252-400, looked up)
chain: TQSRDSINKAKYLTKKTQAASVEAVKMLDEILLQLSASVPVDVMPGEFDPTNYTLPQQPLHPCMFPLATAYSTLQLVTNPYQATIDGVRFLGTSGQNVSDIFRYSSMEDHLEILEWTLRVRHISPTAPDTLGCYPFYKTDPFIFPECPH
notes: as for B1

- binding result [2]: binds
- binding result [3]: binds
B4: GST-PDIP46 (DNA polymerase δ interacting protein 46), wild type, full length (natural protein, human, UniProt Q9BY77 1-421, looked up)
chain: MADISLDELIRKRGAAAKGRLNARPGVGGVRSRVGIQQGLLSQSTRTATFQQRFDARQKIGLSDARLKLGVKDAREKLLQKDARFRIKGKVQDAREMLNSRKQQTTVPQKPRQVADAREKISLKRSSPAAFINPPIGTVTPALKLTKTIQVPQQKAMAPLHPHPAGMRINVVNNHQAKQNLYDLDEDDDGIASVPTKQMKFAASGGFLHHMAGLSSSKLSMSKALPLTKVVQNDAYTAPALPSSIRTKALTNMSRTLVNKEEPPKELPAAEPVLSPLEGTKMTVNNLHPRVTEEDIVELFCVCGALKRARLVHPGVAEVVFVKKDDAITAYKKYNNRCLDGQPMKCNLHMNGNVITSDQPILLRLSDSPSMKKESELPRRVNSASSSNPPAEVDPDTILKALFKSSGASVTTQPTEFKIKL
notes: PDIP46 (SKAR, POLDIP3), human, full-length; Subcloned in pGEX-5X-3; The functional rows used untagged PDIP46 (his-Sumo fusion, tags removed by Sumo protease, Mono S), not this GST fusion; also called GST-p46; SKAR; source: E. coli BL21DE3 (pLysS), purified (glutathione beads)

Source: paper PMC4868757, “PDIP46 (DNA polymerase δ interacting protein 46) is an activating factor for human DNA polymerase δ” (Oncotarget, 2016)
